Reference: US20250332197A1 (SUNSHINE LAKE PHARMA, published 2025)
Residue numbers refer to the chain shown, from its start.

T1: claudin-18.2 antigen (manufacturer: GenScript, batch number: R50092011) (UniProt P56856-2 1-261, limits assumed)
T1 construct: Bought antigen
T1 sequence (looked up): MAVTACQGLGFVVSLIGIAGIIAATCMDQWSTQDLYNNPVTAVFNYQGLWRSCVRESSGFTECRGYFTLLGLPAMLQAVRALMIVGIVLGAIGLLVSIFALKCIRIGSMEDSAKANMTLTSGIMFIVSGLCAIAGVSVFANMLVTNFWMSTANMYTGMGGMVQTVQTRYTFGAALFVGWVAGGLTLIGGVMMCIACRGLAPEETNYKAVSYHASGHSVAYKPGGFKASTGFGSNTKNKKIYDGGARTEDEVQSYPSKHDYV

B1: 1B6-huVH1huVL2 (antibody, human IgG4 S228P, kappa)
heavy: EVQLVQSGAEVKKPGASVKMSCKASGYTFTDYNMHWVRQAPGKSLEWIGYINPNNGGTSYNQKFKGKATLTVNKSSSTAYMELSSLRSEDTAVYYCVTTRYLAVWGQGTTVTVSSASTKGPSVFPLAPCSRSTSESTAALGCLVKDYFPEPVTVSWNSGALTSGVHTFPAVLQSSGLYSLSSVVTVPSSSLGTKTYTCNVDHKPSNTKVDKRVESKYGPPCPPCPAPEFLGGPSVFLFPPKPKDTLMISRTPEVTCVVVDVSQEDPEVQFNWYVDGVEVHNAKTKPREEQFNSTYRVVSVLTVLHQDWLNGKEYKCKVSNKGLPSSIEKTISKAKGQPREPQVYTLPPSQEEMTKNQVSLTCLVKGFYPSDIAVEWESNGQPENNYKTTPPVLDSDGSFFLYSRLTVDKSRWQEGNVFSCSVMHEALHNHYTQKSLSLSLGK
light: DIQMTQSPSSLSASVGDRVTMTCKSSQSLFNSGNQKNYLTWYQQKPGKAPKLLIYWASTRESGVPSRFSGSGSGTDFTLTISSLQPEDFATYYCQNDYSYPLTFGGGTKLEIKRTVAAPSVFIFPPSDEQLKSGTASVVCLLNNFYPREAKVQWKVDNALQSGNSQESVTEQDSKDSTYSLSSTLTLSKADYEKHKVYACEVTHQGLSSPVTKSFNRGEC
notes: humanized 1B6, human IgG4, kappa
B2: 1B6-huVH3-HC (IgG1) huVL2 (antibody)
heavy: not shown
light: B1 light
notes: humanized 1B6, human IgG1, kappa
B3: 1B6-huVH1-HC (IgG1) huVL1 (antibody)
heavy: not shown
light: B1 light with Q3V, A13V, S66D, L84V, Y93F
notes: as for B2
B4: 1E7-huVH3huVL2 (antibody, human IgG4 S228P, kappa)
heavy: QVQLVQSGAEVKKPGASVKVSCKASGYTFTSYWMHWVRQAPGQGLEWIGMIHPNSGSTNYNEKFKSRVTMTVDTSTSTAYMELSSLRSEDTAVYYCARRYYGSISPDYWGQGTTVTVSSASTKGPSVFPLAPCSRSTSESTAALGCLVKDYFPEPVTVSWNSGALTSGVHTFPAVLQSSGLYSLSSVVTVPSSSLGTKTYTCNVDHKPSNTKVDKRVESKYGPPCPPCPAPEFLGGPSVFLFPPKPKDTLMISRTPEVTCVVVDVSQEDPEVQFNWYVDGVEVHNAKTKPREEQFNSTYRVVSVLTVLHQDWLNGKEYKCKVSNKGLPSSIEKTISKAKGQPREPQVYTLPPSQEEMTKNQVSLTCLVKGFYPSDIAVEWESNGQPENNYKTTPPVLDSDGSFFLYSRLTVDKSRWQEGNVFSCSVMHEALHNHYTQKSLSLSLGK
light: B1 light with F30L, L102F
notes: humanized 1E7, human IgG4, kappa
B5: 1E7-huVH5huVL3 (antibody, human IgG4 S228P, kappa)
heavy: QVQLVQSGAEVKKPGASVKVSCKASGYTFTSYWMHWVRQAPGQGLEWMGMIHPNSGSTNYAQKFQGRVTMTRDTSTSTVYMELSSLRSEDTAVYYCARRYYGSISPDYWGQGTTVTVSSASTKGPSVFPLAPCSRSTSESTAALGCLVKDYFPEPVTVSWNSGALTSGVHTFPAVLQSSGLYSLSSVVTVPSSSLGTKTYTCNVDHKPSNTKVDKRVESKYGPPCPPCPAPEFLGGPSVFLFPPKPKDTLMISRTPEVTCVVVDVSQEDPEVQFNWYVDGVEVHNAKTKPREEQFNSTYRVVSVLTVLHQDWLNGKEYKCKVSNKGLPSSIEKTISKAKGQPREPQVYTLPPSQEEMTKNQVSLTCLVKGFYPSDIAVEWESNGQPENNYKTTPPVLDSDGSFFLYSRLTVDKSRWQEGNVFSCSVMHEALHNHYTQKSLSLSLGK
light: B1 light with M21I, K24R, F30L, L102F
notes: as for B4
B6: 1E7-huVH3huVL3 (antibody, human IgG4 S228P, kappa)
heavy: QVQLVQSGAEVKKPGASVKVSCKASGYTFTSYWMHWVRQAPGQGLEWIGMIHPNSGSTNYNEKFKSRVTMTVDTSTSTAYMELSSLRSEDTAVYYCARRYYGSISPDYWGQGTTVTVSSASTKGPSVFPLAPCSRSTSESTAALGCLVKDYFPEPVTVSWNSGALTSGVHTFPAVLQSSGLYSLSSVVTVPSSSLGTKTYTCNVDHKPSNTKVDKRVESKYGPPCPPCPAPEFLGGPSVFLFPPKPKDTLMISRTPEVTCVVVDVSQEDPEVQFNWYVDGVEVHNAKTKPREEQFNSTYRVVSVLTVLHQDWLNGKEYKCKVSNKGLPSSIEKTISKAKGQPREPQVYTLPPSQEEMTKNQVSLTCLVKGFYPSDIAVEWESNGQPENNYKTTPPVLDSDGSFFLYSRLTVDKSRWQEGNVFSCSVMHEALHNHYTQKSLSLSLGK
light: B1 light with M21I, K24R, F30L, L102F
notes: as for B4
B7: 1B6-huVH3huVL1 (antibody, human IgG4 S228P, kappa)
heavy: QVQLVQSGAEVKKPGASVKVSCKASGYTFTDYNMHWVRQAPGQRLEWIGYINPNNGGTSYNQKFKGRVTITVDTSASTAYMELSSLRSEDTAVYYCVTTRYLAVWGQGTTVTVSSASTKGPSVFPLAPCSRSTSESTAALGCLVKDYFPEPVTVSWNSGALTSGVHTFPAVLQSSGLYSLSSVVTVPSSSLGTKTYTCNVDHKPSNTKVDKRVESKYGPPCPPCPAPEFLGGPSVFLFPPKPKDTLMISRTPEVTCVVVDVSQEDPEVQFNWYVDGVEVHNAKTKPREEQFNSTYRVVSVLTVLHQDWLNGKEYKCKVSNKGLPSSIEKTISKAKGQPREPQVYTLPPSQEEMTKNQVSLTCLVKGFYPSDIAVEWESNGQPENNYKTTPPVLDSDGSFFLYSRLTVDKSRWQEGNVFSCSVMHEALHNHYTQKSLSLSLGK
light: B1 light with Q3V, A13V, S66D, L84V, Y93F
notes: humanized 1B6, human IgG4, kappa; also called P04887
B8: 1E7-huVH4huVL2 (antibody, human IgG4 S228P, kappa)
heavy: not shown
light: B1 light with F30L, L102F
notes: humanized 1E7, human IgG4, kappa; also called P04902
B9: 1B6-huVH4-HC (IgG1) huVL2 (antibody)
heavy: not shown
light: B1 light
notes: as for B2
B10: 1B6-huVH1-HC (IgG1) huVL2 (antibody)
heavy: not shown
light: B1 light
notes: as for B2
B11: 1B6-huVH4huVL2 (antibody, human IgG4 S228P, kappa)
heavy: not shown
light: B1 light
notes: as for B1
B12: 1B6-huVH3-HC (IgG1) huVL1 (antibody)
heavy: not shown
light: B1 light with Q3V, A13V, S66D, L84V, Y93F
notes: as for B2
B13: 1E7-huVH1huVL2 (antibody, human IgG4 S228P, kappa)
heavy: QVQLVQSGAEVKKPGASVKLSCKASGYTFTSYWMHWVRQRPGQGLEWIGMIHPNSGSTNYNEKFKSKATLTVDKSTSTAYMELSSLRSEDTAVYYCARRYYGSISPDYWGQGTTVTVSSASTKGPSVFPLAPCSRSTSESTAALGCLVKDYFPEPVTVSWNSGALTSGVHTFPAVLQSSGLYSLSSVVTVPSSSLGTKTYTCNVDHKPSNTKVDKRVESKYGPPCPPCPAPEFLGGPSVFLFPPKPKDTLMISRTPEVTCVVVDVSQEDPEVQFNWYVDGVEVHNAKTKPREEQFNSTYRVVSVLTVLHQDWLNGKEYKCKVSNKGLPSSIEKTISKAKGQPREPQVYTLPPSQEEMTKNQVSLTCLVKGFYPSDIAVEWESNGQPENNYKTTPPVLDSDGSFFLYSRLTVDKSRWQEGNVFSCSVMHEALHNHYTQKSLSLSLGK
light: B1 light with F30L, L102F
notes: as for B4
B14: 1B6-huVH2huVL2 (antibody, human IgG4 S228P, kappa)
heavy: not shown
light: B1 light
notes: as for B1
B15: 1B6-huVH4huVL3 (antibody, human IgG4 S228P, kappa)
heavy: not shown
light: B1 light with M21I, K24R
notes: humanized 1B6, human IgG4, kappa; also called P04891
B16: 1B6-huVH2huVL1 (antibody, human IgG4 S228P, kappa)
heavy: not shown
light: B1 light with Q3V, A13V, S66D, L84V, Y93F
notes: as for B1
B17: 1E7-huVH2huVL2 (antibody, human IgG4 S228P, kappa)
heavy: not shown
light: B1 light with F30L, L102F
notes: humanized 1E7, human IgG4, kappa; also called P04898
B18: 1E7-huVH4huVL3 (antibody, human IgG4 S228P, kappa)
heavy: not shown
light: B1 light with M21I, K24R, F30L, L102F
notes: as for B4
B19: 1B6-huVH5huVL3 (antibody, human IgG4 S228P, kappa)
heavy: not shown
light: B1 light with M21I, K24R
notes: as for B1
B20: 1B6-huVH3huVL3 (antibody, human IgG4 S228P, kappa)
heavy: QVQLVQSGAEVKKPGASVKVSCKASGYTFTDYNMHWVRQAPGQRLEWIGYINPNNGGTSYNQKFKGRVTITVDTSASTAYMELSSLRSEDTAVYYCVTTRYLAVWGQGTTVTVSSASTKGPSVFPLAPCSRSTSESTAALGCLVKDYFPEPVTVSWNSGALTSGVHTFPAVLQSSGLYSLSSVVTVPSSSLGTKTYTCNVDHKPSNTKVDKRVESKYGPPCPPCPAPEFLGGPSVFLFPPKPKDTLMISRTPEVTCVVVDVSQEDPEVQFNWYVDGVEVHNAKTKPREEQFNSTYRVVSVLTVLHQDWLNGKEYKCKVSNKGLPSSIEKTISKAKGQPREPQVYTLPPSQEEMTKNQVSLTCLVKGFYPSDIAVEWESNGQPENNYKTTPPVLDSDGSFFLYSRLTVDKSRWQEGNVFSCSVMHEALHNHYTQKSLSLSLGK
light: B1 light with M21I, K24R
notes: as for B1
B21: 1E7-huVH2huVL1 (antibody, human IgG4 S228P, kappa)
heavy: not shown
light: B1 light with Q3V, A13V, F30L, K48Q, A49P, S66D, L84V, L102F
notes: as for B4
B22: 1E7-huVH1huVL1 (antibody, human IgG4 S228P, kappa)
heavy: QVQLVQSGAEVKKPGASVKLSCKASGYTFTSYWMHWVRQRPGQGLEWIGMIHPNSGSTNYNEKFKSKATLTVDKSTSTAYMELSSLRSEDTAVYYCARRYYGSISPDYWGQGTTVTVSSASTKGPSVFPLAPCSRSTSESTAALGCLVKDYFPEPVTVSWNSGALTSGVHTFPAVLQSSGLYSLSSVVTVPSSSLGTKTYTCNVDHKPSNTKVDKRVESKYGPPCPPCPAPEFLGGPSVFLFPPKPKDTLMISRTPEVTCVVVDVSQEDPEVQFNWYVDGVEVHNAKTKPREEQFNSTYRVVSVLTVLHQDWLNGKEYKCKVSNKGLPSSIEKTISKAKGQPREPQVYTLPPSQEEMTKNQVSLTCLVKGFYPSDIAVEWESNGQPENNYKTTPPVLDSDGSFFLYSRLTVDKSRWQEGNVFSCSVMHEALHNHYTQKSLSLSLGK
light: B1 light with Q3V, A13V, F30L, K48Q, A49P, S66D, L84V, L102F
notes: as for B4
B23: 1B6-huVH2-HC (IgG1) huVL1 (antibody)
heavy: not shown
light: B1 light with Q3V, A13V, S66D, L84V, Y93F
notes: as for B2
B24: 1E7-huVH5huVL2 (antibody, human IgG4 S228P, kappa)
heavy: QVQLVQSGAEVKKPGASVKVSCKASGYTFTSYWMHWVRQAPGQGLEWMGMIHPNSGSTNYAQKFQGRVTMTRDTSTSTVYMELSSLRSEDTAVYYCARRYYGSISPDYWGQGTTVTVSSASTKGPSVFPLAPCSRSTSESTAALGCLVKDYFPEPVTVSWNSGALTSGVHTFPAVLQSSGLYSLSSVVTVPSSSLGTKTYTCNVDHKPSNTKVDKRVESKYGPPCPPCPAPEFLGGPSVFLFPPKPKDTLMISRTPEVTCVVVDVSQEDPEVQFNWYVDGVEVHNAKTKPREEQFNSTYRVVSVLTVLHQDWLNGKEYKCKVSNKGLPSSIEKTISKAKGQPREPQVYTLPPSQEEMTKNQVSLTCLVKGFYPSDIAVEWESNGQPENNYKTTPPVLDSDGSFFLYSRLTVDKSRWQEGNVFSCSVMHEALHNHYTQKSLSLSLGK
light: B1 light with F30L, L102F
notes: as for B4
B25: 1B6-huVH2-HC (IgG1) huVL2 (antibody)
heavy: not shown
light: B1 light
notes: as for B2
B26: 1B6-huVH3-HC (IgG1) huVL3 (antibody)
heavy: not shown
light: B1 light with M21I, K24R
notes: as for B2
B27: 1B6-huVH4-HC (IgG1) huVL3 (antibody)
heavy: not shown
light: B1 light with M21I, K24R
notes: as for B2
B28: 1B6-huVH5-HC (IgG1) huVL2 (antibody)
heavy: not shown
light: B1 light
notes: as for B2
B29: 1E7-huVH3huVL1 (antibody, human IgG4 S228P, kappa)
heavy: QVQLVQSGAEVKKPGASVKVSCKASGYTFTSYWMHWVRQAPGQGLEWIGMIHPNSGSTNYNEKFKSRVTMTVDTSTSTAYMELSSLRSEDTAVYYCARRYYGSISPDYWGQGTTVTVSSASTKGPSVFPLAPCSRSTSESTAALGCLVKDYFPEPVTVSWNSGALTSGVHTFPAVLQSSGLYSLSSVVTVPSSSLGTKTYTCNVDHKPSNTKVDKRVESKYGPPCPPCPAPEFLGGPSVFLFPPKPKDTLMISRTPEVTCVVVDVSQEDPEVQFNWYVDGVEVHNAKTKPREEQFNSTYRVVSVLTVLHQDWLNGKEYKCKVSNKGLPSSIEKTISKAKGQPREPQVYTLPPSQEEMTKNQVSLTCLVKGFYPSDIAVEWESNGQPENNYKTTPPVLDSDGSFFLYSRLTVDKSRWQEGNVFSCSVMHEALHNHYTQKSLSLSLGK
light: B1 light with Q3V, A13V, F30L, K48Q, A49P, S66D, L84V, L102F
notes: as for B4
B30: 1B6-huVH5huVL2 (antibody, human IgG4 S228P, kappa)
heavy: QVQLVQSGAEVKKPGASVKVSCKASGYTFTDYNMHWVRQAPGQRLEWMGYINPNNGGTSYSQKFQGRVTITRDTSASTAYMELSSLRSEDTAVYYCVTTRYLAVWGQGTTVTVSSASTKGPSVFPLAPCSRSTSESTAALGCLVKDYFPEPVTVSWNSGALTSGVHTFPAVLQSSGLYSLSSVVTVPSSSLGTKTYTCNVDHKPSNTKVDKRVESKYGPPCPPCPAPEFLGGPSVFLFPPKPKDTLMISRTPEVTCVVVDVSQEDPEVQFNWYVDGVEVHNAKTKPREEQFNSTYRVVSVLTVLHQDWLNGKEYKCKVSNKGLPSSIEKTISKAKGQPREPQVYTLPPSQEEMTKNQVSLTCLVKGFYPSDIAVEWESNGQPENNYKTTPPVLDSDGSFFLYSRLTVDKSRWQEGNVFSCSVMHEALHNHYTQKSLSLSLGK
light: B1 light
notes: as for B1

Tests used:
[1] = target: T1, claudin-18.2 antigen (manufacturer: …); assay: Gator label-free kinetics, antibody loaded, antigen 2000-500 nM
Method: The GATOR instrument and associated software were opened and the Kinetics experimental mode was selected. After data collection, Kinetics fitting was performed to calculate the affinity kinetic parameters. The correlation coefficient R² of all antibodies in the Global fitting mode was greater than 0.95, which met the system suitability requirements and the results were reliable.

[2] = target: T1, claudin-18.2 antigen (manufacturer: …); assay: ELISA, plate coated with claudin-18.2 antigen
Method: The ELISA plates were washed three times with PBST and blocked with 5% PBS-milk for 2 h at room temperature. The ELISA plate was washed three times with PBST, and the diluted antibodies were added to the ELISA plate, 30 μL per well, and incubated at room temperature for 60 min. The plates were washed three times with PBST and incubated with anti-human IgG-Fc-HRP (abcam, ab97225) for 50 min at room temperature. The plate was washed 12 times with PBST, and TMB was added, 30 μL per well. The reaction was terminated with stop solution and OD450 was read. The ELISA affinity EC50 was calculated.

Row | Binder | Kd [1] [nM] | koff [1] [s⁻¹] | kon [1] [M⁻¹ s⁻¹] | EC50 [2] [µg/mL]
1 | B1 | 10.6 | 0.000164 | 15500 | 0.0775
2 | B2 | 10.9 | 0.00012 | 11100 | 0.0614
3 | B3 | 63.3 | 0.00123 | 19400 | 0.0248
4 | B4 | 2.02 | 2.08e-05 | 10300 | 0.56
5 | B5 | 3.21 | 3.09e-05 | 9610 | 0.0931
6 | B6 | 13.5 | 0.000149 | 11000 | 0.509
7 | B7 | 0.98 | 1.27e-05 | 13000 | 0.0569
8 | B8 | 4.6 | 4.86e-05 | 10600 | 0.309
9 | B9 | 20.5 | 0.000207 | 10100 | 0.0431
10 | B10 | 86.7 | 0.00171 | 19700 | 0.0162
11 | B11 | 7.06 | 7.06e-05 | 9990 | 0.21
12 | B12 | 7.65 | 7.83e-05 | 10200 | 0.0592
13 | B13 | 5.08 | 5.56e-05 | 10900 | 0.156
14 | B14 | 4.86 | 6.78e-05 | 13900 | 0.192
15 | B15 | 7.24 | 8.07e-05 | 11100 | 0.346
16 | B16 | 4.57 | 6.36e-05 | 13900 | 0.0978
17 | B17 | 21.6 | 0.000269 | 12400 | 0.262
18 | B18 | 6.19 | 6.27e-05 | 10100 | 0.441
19 | B19 | 7.51 | 9.78e-05 | 13000 | 0.174
20 | B20 | 8.11 | 8.56e-05 | 10600 | 0.209
21 | B21 | 0.277 | 2.65e-06 | 9550 | 0.436
22 | B22 | 3.58 | 3.81e-05 | 10600 | 0.309
23 | B23 | 9.84 | 0.000101 | 10300 | 0.0403
24 | B24 | 5.24 | 5.29e-05 | 10100 | 0.496
25 | B25 | 11.8 | 0.00013 | 11000 | 0.0301
26 | B26 | 9.64 | 0.000116 | 12100 | 0.0725
27 | B27 | 43.9 | 0.000799 | 18200 | 0.0519
28 | B28 | 59.7 | 0.00129 | 21600 | 0.0298
29 | B29 | 12 | 0.000132 | 11000 | 0.606
30 | B30 | 10.6 | 0.000144 | 13600 | 0.202
